Entries after “also recorded” stand apart in the source; their conditions may differ.
Columns and labels:
primary osteoblasts = experiment: Dexamethasone induced cell death of primary osteoblasts, trypan blue uptake; assay type: cell-based, murine; conditions: 16 h dex. treatment (10^−6M)
Description: Cell viability was monitored by trypan blue exclusion. Nonadherent cells were combined with adherent cells released from the culture dish using trypsin-EDTA, resuspended in medium containing serum and collected by centrifugation. 0.04% trypan blue was added and the 150 cells per condition are counted). DNA fragmentation was measured by the TUNEL (transferase biotin-dUTP nick endlabeling). […] 104, 1363-1374; and Bellido, T., O'Brien, C. A., Roberson, P. K., and Manolagas, S. C. (1998) J. Biol. Chem. 273, 21137-21144).
In addition to MLO-Y4 cells, it will also be possible to determine the effect of dexamethasone in the presence or absence of calbindin-D28k on apoptotic cell death and on caspase 3 activity (with the methodology outlined above) using primary osteoblastic cells from calbindin-D28k KO and WT mice. Murine osteoblasts will be isolated from pups 30-72 h old from our colony of WT (C57BL6) or calbindin-D28k KO mice (cite 22 of grant, cite 111 of grant) by controlled digestion with collagenase (cite 112 of grant). Briefly calvariae, trimmed of fibrous tissue and divided in 2 are transferred to 15 ml conical sterile tubes, washed with PBS (5 ml) 3× at 37° C. (10 min/wash) in an oscillating H2O bath. Calvariae are then subjected to a series of collagenase digestions (200 μg/Ml PBS collagenase CLS2 from Worthington) in an oscillating 37° C. […]

MLO-Y4 osteocytic cells = experiment: Dexamethasone induced cell death of MLO-Y4 cells transfected with calbindin-D28k expression vector (trypan blue, TUNEL, morphology); assay type: cell-based, murine; conditions: MLO-Y4 cells transfected with pREP4 or BSRα calbindin-D28k vector vs vector alone, 10^−6M dexamethasone, 6, 12 and 24 h
Description: Murine osteocytic MLO-Y4 cells (provided by Dr. Lynda Bonewald, University of Texas Health Center at San Antonio, Tex.), and primary bone cells (isolated from neonatal murine calvaria) were cultured as indicated previously (Kato, Y., Windle, J. J., Koop, B. A., Mundy, G. R., and Bonewald, L. F. (1997) J. Bone Miner Res. 12, 2014-2023) (Bellido, T., Borba, V. Z. C., Roberson, P. K., and Manolagas, S. C. (1997) Endocrinology 138, 3666-3676). All culture media contained 100 units/ml penicillin and 100 μg/ml streptomycin. Cultures were kept in a humidified atmosphere of 5% CO2 in air at 37° C.
Transient transfections of MLO-Y4 cells were carried out in 12-well culture plates using SUPERFECT®. […] After 6, 12 and 24 h, apoptosis was induced by addition of 10^−6M dexamethasone and quantified as indicated below or cell lysates collected for the analysis of calbindin-D28k by Western blotting and radioimmunoassay (cite 65 of grant).
Cell viability was monitored by trypan blue exclusion. […] 0.04% trypan blue was added and the 150 cells per condition are counted). DNA fragmentation was measured by the TUNEL (transferase biotin-dUTP nick endlabeling). […]
Data were analyzed by one-way analysis of variance, and the Student-Keuls-Newman method was used to estimate the level of significance of differences between means. […]

lymphocytes = conditions: stable expression of calbindin-D28k cDNA in lymphocytes (Dowd et al. 1992); cited from earlier work
MC3T3-E1 cells = MC3T3-E1 cells transfected with calbindin-D28K cDNA vs empty vector; cited from earlier work

Row | Molecule | % of dead cells (trypan blue uptake) (primary osteoblasts; in the absence of calbindin-D28k) [%] | % of dead cells (trypan blue uptake) (primary osteoblasts; in the presence of calbindin-D28k, p<0.05) [%] | protection against glucocorticoid (dexamethasone) induced cell death (MLO-Y4 osteocytic cells) | protection against glucocorticoid (dexamethasone) induced cell death (MLO-Y4 osteocytic cells; listed as calbindin-D28K) | protection against glucocorticoid induced lymphocyte cell death (lymphocytes) | pro-apoptotic effect of TNF (nuclear fragmentation) (MC3T3-E1 cells)
1 | C[C@@H]1C[C@H]2[C@@H]3CCC4=CC(=O)C=C[C@]4(C)[C@@]3(F)[C@@H](O)C[C@]2(C)[C@@]1(O)C(=O)CO [dex., dexamethasone, reference compound] | 23.2±3 | – | – | – | – | –
2 | calbindin-D28k: calcium binding protein (polypeptide of SEQ ID NO:2), expressed in cells from pREP4 or BSRα calbindin-D28k expression vectors (protein, listed as Homo sapiens) MAESHLQSSLITASQFFEIWLHFDADGSGYLEGKELQNLIQELQQARKKAGLELSPEMKTFVDQYGQRDDGKIGIVELAHVLPTEENFLLLFRCQQLKSCEEFMKTWRKYDTDHSGFIETEELKNFLKDLLEKANKTVDDTKLAEYTDLMLKLFDSNNDGKLELTEMARLLPVQENFLLKFQGIKMCGKEFNKAFELYDQDGNGYIDENELDALLKDLCEKNKQDLDINNITTYKKNIMALSDGGKLYRTDLALILCAGDN | – | 12.9±2.4 | protection; also recorded: protected against glucocorticoid induced cell death | protection against dexamethasone induced cell death | protect against glucocorticoid induced lymphocyte cell death | significantly attenuated

Source: patent publication US7790155B2, “Calbindin-D28K protection against glucocorticoid induced cell death” (University of Medicine and Dentistry of New Jersey, priority 2002, dated 2010)
